From PMC8698692, “Generation of a Novel High-Affinity Antibody Binding to PCSK9 Catalytic Domain with Slow Dissociation Rate by CDR-Grafting, Alanine Scanning and Saturated Site-Directed Mutagenesis for Favorably Treating Hypercholesterolemia” (Biomedicines, 2021)
Substitutions are numbered along the chain they refer to. Values belong to the binder of their own block, whether it stands above or below them.

Assays:
[1] = target: T1, human proprotein convertase subtilisin/kexin type 9 (hPCSK9), recombinant (Homo sapiens, UniProt Q8NBP7, biotinylated with a biotinylation kit for the BLI assay only (sites not given)); assay: BLI; ForteBio Octet QKe; biotinylated hPCSK9 (50 μg/mL) immobilised on streptavidin biosensors; 2-fold dilutions of antibody (scFvs 6000-93.75 nM, mAbs 800-12.5 nM), association 300 s or longer, dissociation 600 s in SD buffer (PBS, 0.02% Tween 20, 0.1% BSA, pH 7.4); global fit; settings: both partners purified
T1 construct: signal peptide in the construct; source: CHO-3E7, transiently transfected (pTT5-hPCSK9), supernatant purified (Ni-IMAC, Superdex 200 SEC)

[2] = target: T1, human proprotein convertase …; assay: ELISA; non-competitive ELISA; hPCSK9 coated at 1 μg/mL and 2 μg/mL; purified m5E12 at 10^-1 to 10^5 ng/mL; HRP goat anti-mouse IgG; Kaff = (n − 1)/2(n[Ab']t − [Ab]t); settings: both partners purified

T1 sequence (Q8NBP7 31-692): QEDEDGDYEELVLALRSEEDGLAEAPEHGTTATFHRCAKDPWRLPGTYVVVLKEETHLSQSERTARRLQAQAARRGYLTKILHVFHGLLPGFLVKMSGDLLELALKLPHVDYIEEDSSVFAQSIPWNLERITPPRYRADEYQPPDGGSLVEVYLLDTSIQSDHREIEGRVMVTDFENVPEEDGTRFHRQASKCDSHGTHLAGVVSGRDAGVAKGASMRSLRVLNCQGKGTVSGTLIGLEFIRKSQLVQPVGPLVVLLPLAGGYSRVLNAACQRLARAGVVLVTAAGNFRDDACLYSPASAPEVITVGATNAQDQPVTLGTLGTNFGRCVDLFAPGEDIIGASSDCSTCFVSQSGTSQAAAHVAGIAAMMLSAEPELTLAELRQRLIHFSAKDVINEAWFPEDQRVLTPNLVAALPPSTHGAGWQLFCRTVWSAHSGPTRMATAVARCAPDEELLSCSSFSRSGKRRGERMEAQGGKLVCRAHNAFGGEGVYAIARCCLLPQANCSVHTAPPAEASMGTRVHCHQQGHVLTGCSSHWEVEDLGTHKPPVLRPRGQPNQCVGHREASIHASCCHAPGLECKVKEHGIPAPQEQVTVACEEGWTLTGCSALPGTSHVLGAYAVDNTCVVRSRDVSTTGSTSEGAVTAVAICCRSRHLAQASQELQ

B1: h5E12scFv, humanized 5E12 scFv by CDR grafting without back mutation (scFv, V domains shown)
VH: QVQLVQSGAEVKKPGASVKVSCKASGYTFTSYWMHWVRQAPGQGLEWMGEINPSNGRTDHSEKFKNRVTMTRDTSTSTVYMELSSLRSEDTAVYYCARFHYDYDYFDYWGQGTLVTVSS
VL: DIVMTQSPSSLSASVGDRVTITCKASRNVGNSVGWYQQKPGKAPKLLIYSASYRYSGVPSRFSGSGSGTDFTLTISSLQPEDFATYYCQQYNRYPLTFGQGTKVEIK
notes: VH of h5E12scFv: CDRs of m5E12 grafted onto the human heavy chain GenBank AMK70123.1; (Gly4Ser)3 linker; the format VH-(Gly4Ser)3-VL is told for m5E12scFv, of which this is the humanized form; VL of h5E12scFv: CDRs of m5E12 grafted onto the human light chain GenBank APZ85158.1; Cloned in pET-27b with the pelB signal peptide; isolated from the periplasm; source: E. coli BL21 (DE3), periplasm, …
Kd [1]: 171 nM
koff [1]: 0.00108 s⁻¹

B2: h5E12scFv-bm, humanized 5E12 scFv by CDR grafting with back mutation (scFv, V domains shown)
VH: B1 VH with Q1E, R38K, M48I, R67K, V68A, R72V, V79A, M81L, A92S
VL: B1 VL with M4I, P8T, L46I, P59H, T85E, Y87F, Q100E
notes: (Gly4Ser)3 linker; the format VH-(Gly4Ser)3-VL is told for m5E12scFv, of which this is a humanized form; Cloned in pET-27b with the pelB signal peptide; isolated from the periplasm; source: E. coli BL21 (DE3), periplasm, purified (Ni-NTA, Superdex 75 SEC)
koff [1]: 0.01 s⁻¹

Other lines, results leading:

koff [1]: 0.00744 s⁻¹
B3: m5E12scFv, murine 5E12 single-chain variable fragment (scFv, V domains shown)
VH: EVQLEQSGAELVKPGASVKLSCKASGYTFTSYWMHWVKQRPGQGLEWIGEINPSNGRTDHSEKFKNKATLTVDKSSTTAYLQLSSLTSEDSSVYYCARFHYDYDYFDYWGQGTTLTVSS
VL: DIVITQSTKFMSTSVGDRVSVTCKASRNVGNSVGWYQQKPGQSPKILIYSASYRYSGVHDRFTGSGSGTDFTLTISNVQSEDLAEYFCQQYNRYPLTFGEGTKLELK
notes: VH of m5E12; (Gly4Ser)3 linker between VH and VL; VL of m5E12; Cloned in pET-27b with the pelB signal peptide; isolated from the periplasm; also called murine 5E12 scFv; source: E. coli BL21 (DE3), periplasm, purified (Ni-NTA, Superdex 75 SEC)

Ka [2]: 1.04e+09 M⁻¹
B4: m5E12, murine monoclonal antibody against hPCSK9 (IgG1, kappa) (antibody, V domains shown)
VH: B3 VH
VL: B3 VL
notes: VH of m5E12; mouse IgG1 heavy-chain constant region (isotype found with a kit; BALB/c mice); VL of m5E12; mouse kappa light-chain constant region (isotype found with a kit); Mouse IgG1 kappa; also called mAb 5E12; source: hybridoma 5E12 supernatant (screening ELISA); mouse ascites, purified (protein A)
